Experimental data as given in PMC12098869, “An mRNA-display derived cyclic peptide scaffold reveals the substrate binding interactions of an N-terminal cysteine oxidase” (Nature Communications, 2025).
Positions count from the first letter of the chain named. One block for each binder: values may come before it.

What was measured:
Experiment in all cases: SPR; multi-cycle, equilibrium steady state affinity 1:1 binding model; biotinylated ADO or variant immobilised on a Biotin CAP chip (~2500-3000 RU), peptide injected; 4 °C; 20 mM HEPES pH 7.5, 500 mM NaCl, 10 mM DTT, 0.1% (v/v) tween-20; 50 μL/minute
Conditions in all cases: both partners purified
[1] = target: T1, ADO-Y87A, biotinylated (pQE80L-Navi-ADO) (human, UniProt Q96SZ5 1-270, Y87A, biotin on the Avi tag)
T1 construct: Tag as in Dm1; source: E. coli Rosetta2(DE3), purified (Ni-NTA, SEC); not shown: Avi tag, N-terminal, kept; His6, N-terminal, kept
T1 sequence (looked up): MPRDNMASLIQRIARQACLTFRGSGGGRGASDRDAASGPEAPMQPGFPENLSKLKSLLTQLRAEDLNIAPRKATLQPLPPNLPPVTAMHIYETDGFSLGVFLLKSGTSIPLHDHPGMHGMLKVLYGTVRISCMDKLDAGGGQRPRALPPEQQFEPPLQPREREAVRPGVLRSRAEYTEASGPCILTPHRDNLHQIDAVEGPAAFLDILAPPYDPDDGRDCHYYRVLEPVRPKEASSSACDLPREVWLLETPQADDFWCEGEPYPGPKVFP
How it was run: (§1)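 Biotinylated full-length human ADO (wild type or engineered forms) was made in E. coli with a His tag, then purified by nickel affinity and gel filtration. It was captured on a Biotin CAP chip at about 2500–3000 RU in a Biacore T200, and peptides were flowed over it. The run was at 4 °C in HEPES pH 7.5 buffer with 500 mM NaCl, DTT and tween-20, at 50 μL/minute. Kd came from a 1:1 steady-state fit of multi-cycle equilibrium responses.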

[2] = target: T2, ADO-Y222A, biotinylated (pQE80L-Navi-ADO) (human, UniProt Q96SZ5 1-270, Y222A, biotin on the Avi tag)
T2 construct: Tag as in Dm1; source: E. coli Rosetta2(DE3), purified (Ni-NTA, SEC); not shown: Avi tag, N-terminal, kept; His6, N-terminal, kept
T2 sequence (looked up): T1 sequence (looked up) with A87Y, Y222A
How it was run: as §1

[3] = target: T3, ADO-Y87F, biotinylated (pQE80L-Navi-ADO) (human, UniProt Q96SZ5 1-270, Y87F, biotin on the Avi tag)
T3 construct: Tag as in Dm1; source: E. coli Rosetta2(DE3), purified (Ni-NTA, SEC); not shown: Avi tag, N-terminal, kept; His6, N-terminal, kept
T3 sequence (looked up): T1 sequence (looked up) with A87F
How it was run: as §1

[4] = target: T4, ADO-Y212F, biotinylated (pQE80L-Navi-ADO) (human, UniProt Q96SZ5 1-270, Y212F, biotin on the Avi tag)
T4 construct: Tag as in Dm1; source: E. coli Rosetta2(DE3), purified (Ni-NTA, SEC); not shown: Avi tag, N-terminal, kept; His6, N-terminal, kept
T4 sequence (looked up): T1 sequence (looked up) with A87Y, Y212F
How it was run: as §1

[5] = target: T5, ADO-I109A, biotinylated (pQE80L-Navi-ADO) (human, UniProt Q96SZ5 1-270, I109A, biotin on the Avi tag)
T5 construct: Tag as in Dm1; source: E. coli Rosetta2(DE3), purified (Ni-NTA, SEC); not shown: Avi tag, N-terminal, kept; His6, N-terminal, kept
T5 sequence (looked up): T1 sequence (looked up) with A87Y, I109A
How it was run: as §1

- Kd [1]: 4200 nM
- Kd [2]: 1000 nM
- Kd [3]: 320 nM
- Kd [4]: 9200 nM
- Kd [5]: 16000 nM
B1: IL32_(2-15), synthetic peptide corresponding to the methionine excised N-terminus of IL32, residues 2-15 (peptide, UniProt P24001 2-15, looked up)
peptide: CFPKVLSDDMKKLK
notes: Interleukin 32 (IL32), residues 2-15, N-terminal Cys; also called IL32 peptide; source: synthetic peptide

- Kd [1]: 1700 nM
- Kd [2]: 4700 nM
- Kd [3]: 340 nM
- Kd [4]: 24000 nM
- Kd [5]: 1300 nM
B2: RGS5_(2-15), synthetic peptide corresponding to the methionine excised N-terminus of RGS5, residues 2 to 15 (peptide, UniProt O15539 2-15, looked up)
peptide: CKGLAALPHSCLER
notes: Regulator of G-protein signalling 5 (RGS5), residues 2 to 15, N-terminal Cys; also called RGS5 peptide; source: synthetic peptide
